The values that follow come from the supplement of paper PMC10126150.

± gives the standard deviation of the averaged measurements.

The series has as its system ATP. In words: switch fluorescence ratio, 500 uM ATP over buffer (Cy3 cluster intensity, sum of 5 cycles each) (fold (ratio)); higher = stronger signal-on switching upon ATP binding; sequences stand for … in TCGTCGGCAGCGTCAGATGTGTATAAGAGACAGTTTTTTTTTTTTTTTTTTTTTTTTT…TC. As to conditions: aptamer strand: ATP DNA aptamer (quencher-CACCTGGGGGAGTATTGCGGAGGAAGG + anchor), 100 nM annealed; ATP concentration: 500 uM. The essentials:
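Cy3-labelled switching-strand clusters on a modified Illumina MiSeq flow-cell were annealed to 100 nM quencher-labelled ATP aptamer, imaged in selection buffer, then imaged after 15 min with 500 uM ATP at 22 °C. Five buffer/ATP cycles ran, with NaOH stripping and re-annealing between them. The fluorescence ratio is summed target-cycle over summed buffer-cycle Cy3 intensity per cluster, averaged per switch-domain sequence. Clusters outside 100-1000 RFU were excluded.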
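Also: ATP exposure 15 min at 22 °C before imaging.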

In the case of GGATGTTCGT, the switch fluorescence ratio is 0.9911 ± 0.0083. To TTCTGAAGC belongs 3.69 ± 1; to GATGACCTTT, 1.07 ± 0.14. On to TCGTCCGGAG, for which the switch fluorescence ratio amounted to 1.55 ± 0.016.

As for TTGATCCGCT, the switch fluorescence ratio was 1.74 ± 0.47. For CGTACTGGAG the value was 1.01 ± 0.056; for AGACGTAGTG, 0.99 ± 0.029; for CTTAGTGCGG, 0.978 ± 0.0012. To TTTGTGTAGC belongs 1 ± 0.038; to AGAGATGTAG, 0.966 ± 0.023.

In the case of GGAGGGTGGT, the switch fluorescence ratio came to 0.9906 ± 0.0019. Consider CGGGGGCTT, for which the switch fluorescence ratio was determined as 1.002 ± 0.0044. GGTCCTGGGG: the switch fluorescence ratio was 1.01 ± 0.039. For AGGAAGATCC, the switch fluorescence ratio is 1.002 ± 0.0083.

For ACGTTGGGTC, the switch fluorescence ratio worked out at 1.02 ± 0.06. To TAAAAAGGAT belongs 1.01 ± 0.02; to TATACAGCGA, 1.0822 ± 0.00025. For CCAGGGGGTT the value was 1.51 ± 0.59. Regarding TAGCAATGTT, the switch fluorescence ratio was determined as 1.64 ± 0.52. To TAGAGCGGGG belongs 0.99 ± 0.02; to CCGGAGGGAG, 1.0201 ± 0.0006.

With CGAGACGTAT, the switch fluorescence ratio was 1.09 ± 0.042. For GGGGGGGCTA, the switch fluorescence ratio worked out at 0.9868 ± 0.0035. For CGAAAGGGTT the value was 0.9983 ± 0.0072; for CGTATTTTAC, 1.08 ± 0.038; for CACAAAAGCG, 1.01 ± 0.042. To TTTAGGCCCC belongs 0.993 ± 0.044. To TCGCTTTT belongs 1.02 ± 0.02; to TTAGCGCTGG, 1.01 ± 0.015; to ATTCTGGTGG, 1.01 ± 0.046. TTTTGCGCAA: the switch fluorescence ratio came to 0.9922 ± 0.0048. On to TCGCATCCTT, for which the switch fluorescence ratio was 0.989 ± 0.017. Consider CGGTATGTGA, for which the switch fluorescence ratio was 0.985 ± 0.041. As for GACAGATGGT, the switch fluorescence ratio amounted to 1.01 ± 0.019. To AAATTACTAG belongs 1.01 ± 0.048; to AGGGGGTGGG, 0.989 ± 0.02. To ACTTGTTTAT belongs 0.981 ± 0.032.

As for TGCATCATAA, the switch fluorescence ratio came out at 1.01 ± 0.024. With TTTGAATTAA, the switch fluorescence ratio came out at 1.01 ± 0.049. For GTCATCAGGT the value was 1.008 ± 0.0058; for TTTAGGCCAT, 1.017 ± 0.01; for GGTCTTCATT, 0.963 ± 0.011.

For the sequence CGGAGCTCTG, the switch fluorescence ratio stood at 1.06 ± 0.015. For ATTAAAAGGA the value was 0.991 ± 0.073. For ATGGTGAGGA the value was 0.995 ± 0.018.

On to GTGGGTTGGT, for which the switch fluorescence ratio was 1.008 ± 0.0054. For the sequence AACGAGTCGT, the switch fluorescence ratio is 0.989 ± 0.029. To TAGCGGGTCA belongs 0.966 ± 0.012; to GTTTGTACCG, 1 ± 0.051; to GCATTCAATG, 1.01 ± 0.024.

Take GGTCTGGGAT: the switch fluorescence ratio is 0.9939 ± 0.0096. For AAGGGGGTAG the value was 1.01 ± 0.032; for CCAACGGGGA, 1.1 ± 0.085. For TAGGTGTAGG, the switch fluorescence ratio turned out to be 1.01 ± 0.028. For GATGCGTACG, the switch fluorescence ratio is 1 ± 0.055. To AAGTTGTGTA belongs 0.993 ± 0.031; to TTGAATTTTA, 0.999 ± 0.033; to TTGGGGTT, 0.9662 ± 0.0019. TTTATACGGT: the switch fluorescence ratio was 1.01 ± 0.005. Regarding GAGCAGCATT, the switch fluorescence ratio is 1.05 ± 0.014. As for TTCAAATCGA, the switch fluorescence ratio was 1 ± 0.039. For GGCGGCGGGG the value was 1.03 ± 0.049. For TATAAAACCC, the switch fluorescence ratio is 1.1 ± 0.045. As for ACGGGAGCTT, the switch fluorescence ratio turned out to be 1.03 ± 0.041. For GAGCGTAAGT the value was 0.958 ± 0.03; for CCGGGATGGT, 1.14 ± 0.057. Regarding GGGACTTTTG, the switch fluorescence ratio came to 0.986 ± 0.15. Regarding GTGTTGGTTT, the switch fluorescence ratio was 0.986 ± 0.024. For ACATAGTTGG the value was 0.966 ± 0.024; for AGTCCTCGGC, 1.13 ± 0.071. For the sequence TAATTTGATG, the switch fluorescence ratio was found to be 0.979 ± 0.027.

Take GGGCGGGTTG: the switch fluorescence ratio is 1 ± 0.0036. For GCTACCGGTG the value was 1.1 ± 0.072; for CGGTATATGG, 0.962 ± 0.013.

Turning to GTATAATGGG, the switch fluorescence ratio came to 0.973 ± 0.019. In the case of GGATTGGTAA, the switch fluorescence ratio came to 0.9919 ± 0.00028. Regarding GGGTTTTAGT, the switch fluorescence ratio is 1.01 ± 0.029. For AATGTTATTA the value was 0.995 ± 0.048.
